# Measured values published in patent US20240400654A1.
# “And” between values parts separate entries of the source, which are not always exact repeats. Equal entries are not always repeated.
# Experiments:
# [1] = target: HRgpA-6H (Porphyromonas gingivalis) (UniProt P28784); experiment: ELISA; non-related FASEBA supernatant on HRgpA-6H coat; secondary Anti-BSA (HRP)
# [2] = target: HRgpA-6H (Porphyromonas gingivalis) (UniProt P28784); experiment: ELISA; non-related FASEBA supernatant on HRgpA-6H coat; secondary goat anti-human IgG (H+L) HRP
# [3] = target: HRgpA-6H (Porphyromonas gingivalis) (UniProt P28784); experiment: ELISA; non-related FASEBA supernatant on HRgpA-6H coat; secondary goat anti-human IgG F(ab')2 HRP
# [4] = target: HRgpA-6H (Porphyromonas gingivalis) (UniProt P28784); experiment: ELISA; non-related FASEBA supernatant on HRgpA-6H coat; secondary mouse anti-human IgG F(ab')2 HRP
# [5] = target: whole P. gingivalis cells (strain W83) (Porphyromonas gingivalis)
# [6] = target: whole P. gingivalis cells (strain W83) (Porphyromonas gingivalis); experiment: gold-labelled KB001, scanning electron microscopy, W83
# [7] = target: HRgpA-6H (Porphyromonas gingivalis) (UniProt P28784); experiment: SPR Biacore 8K, 25 C; table lists HRgpA-6H as ligand, antibody as analyte
# [8] = target: HRgpA-6H (Porphyromonas gingivalis) (UniProt P28784); experiment: SPR Biacore 8K, 25 C; HRGPA-6H immobilized on CM5, KB001-WT-Ab as analyte
# [9] = target: HRgpA-6H (Porphyromonas gingivalis) (UniProt P28784); experiment: ELISA, FASEBA screening, coated HRgpA-6H 0.0625 ug/ml
# [10] = target: HRgpA-6H (Porphyromonas gingivalis) (UniProt P28784); experiment: ELISA, FASEBA screening, coated HRgpA-6H; library clone found WT, OD over parental WT Fab OD
# [11] = target: HRgpA-6H (Porphyromonas gingivalis) (UniProt P28784); experiment: ELISA, FASEBA screening, coated HRgpA-6H; variant OD over parental WT Fab OD
# [12] = target: HRgpA-6H (Porphyromonas gingivalis) (UniProt P28784); experiment: SPR Biacore 8K; table lists HRgpA-6H as ligand, antibody as analyte
molecule,measurement,setting,value
non-related FASEBA supernatant (NC) (Fab),OD450,[1],1.09
same,OD450,[2]; coating antigen 1 µg/ml,1.15
same,OD450,[2]; coating antigen 2 µg/ml,0.736
same,OD450,[3],0.672
same,OD450,[4]; coating antigen 1 µg/ml,0.552
same,OD450,[4]; coating antigen 2 µg/ml,0.288
"KB001 (antibody, V domains shown) VH: EVQLKQSGPGLVAPSQSLSITCTVSGFSLSIYSVHWVRQPPGKGLEWLGMIWGGGSSDYNSALKSRLSISKDNSKSQVFLKMNSLQTDDTAMYYCARNGNFYAMDYWGQGTSVTVSS VL: QIVLTQSPAIMSASLGERVTMTCTASSSVSSSFLHWYQQKPGSSPQLWIYSTSNLASGVPARFSGSGSGTSYSLTISSMEAEDAATYYCHQYHHSPYIYTFGGGTKLEIKR",Kd,[5],11.4 nM
same,Response,[5],0.297 and 0.216 and 0.186
same,koff,[5],0.000219 s⁻¹
same,kon,[5],19200 M⁻¹ s⁻¹
same,IgG molecules bound per bacterium (molecules per bacterium),[6],60 and 80
same,Kd,[7],2.02 nM
same,koff,[7],8.62e-05 s⁻¹
same,kon,[7],42600 M⁻¹ s⁻¹
same,Kd,[8],2.02 nM
same,koff,[8],8.62e-05 s⁻¹
same,kon,[8],42600 M⁻¹ s⁻¹
"KB001 parental mouse Fab FASEBA (WT) (Fab, V domains shown) VH: EVQLKQSGPGLVAPSQSLSITCTVSGFSLSIYSVHWVRQPPGKGLEWLGMIWGGGSSDYNSALKSRLSISKDNSKSQVFLKMNSLQTDDTAMYYCARNGNFYAMDYWGQGTSVTVSS VL: QIVLTQSPAIMSASLGERVTMTCTASSSVSSSFLHWYQQKPGSSPQLWIYSTSNLASGVPARFSGSGSGTSYSLTISSMEAEDAATYYCHQYHHSPYIYTFGGGTKLEIK",OD450 nm,[9],0.831
same,Ratio OD(Variant)/OD(WT),[10],0.956
"KB001 parental mouse Fab FASEBA variant VH Y106W (Fab, V domains shown) VH: EVQLKQSGPGLVAPSQSLSITCTVSGFSLSIYSVHWVRQPPGKGLEWLGMIWGGGSSDYNSALKSRLSISKDNSKSQVFLKMNSLQTDDTAMYYCARNGNFYAMDWWGQGTSVTVSS VL: QIVLTQSPAIMSASLGERVTMTCTASSSVSSSFLHWYQQKPGSSPQLWIYSTSNLASGVPARFSGSGSGTSYSLTISSMEAEDAATYYCHQYHHSPYIYTFGGGTKLEIK",OD450 nm,[9],0.733 and 0.748
same,Ratio OD(Variant)/OD(WT),[11],0.953 and 0.973
"KB001 parental mouse Fab FASEBA variant VH Y106D (Fab, V domains shown) VH: EVQLKQSGPGLVAPSQSLSITCTVSGFSLSIYSVHWVRQPPGKGLEWLGMIWGGGSSDYNSALKSRLSISKDNSKSQVFLKMNSLQTDDTAMYYCARNGNFYAMDDWGQGTSVTVSS VL: QIVLTQSPAIMSASLGERVTMTCTASSSVSSSFLHWYQQKPGSSPQLWIYSTSNLASGVPARFSGSGSGTSYSLTISSMEAEDAATYYCHQYHHSPYIYTFGGGTKLEIK",OD450 nm,[9],0.675
same,Ratio OD(Variant)/OD(WT),[11],0.878
"KB001 parental mouse Fab FASEBA variant VH M104V (Fab, V domains shown) VH: EVQLKQSGPGLVAPSQSLSITCTVSGFSLSIYSVHWVRQPPGKGLEWLGMIWGGGSSDYNSALKSRLSISKDNSKSQVFLKMNSLQTDDTAMYYCARNGNFYAVDYWGQGTSVTVSS VL: QIVLTQSPAIMSASLGERVTMTCTASSSVSSSFLHWYQQKPGSSPQLWIYSTSNLASGVPARFSGSGSGTSYSLTISSMEAEDAATYYCHQYHHSPYIYTFGGGTKLEIK",OD450 nm,[9],0.654
same,Ratio OD(Variant)/OD(WT),[11],0.85
"KB001 parental mouse Fab FASEBA variant VH Y106K (Fab, V domains shown) VH: EVQLKQSGPGLVAPSQSLSITCTVSGFSLSIYSVHWVRQPPGKGLEWLGMIWGGGSSDYNSALKSRLSISKDNSKSQVFLKMNSLQTDDTAMYYCARNGNFYAMDKWGQGTSVTVSS VL: QIVLTQSPAIMSASLGERVTMTCTASSSVSSSFLHWYQQKPGSSPQLWIYSTSNLASGVPARFSGSGSGTSYSLTISSMEAEDAATYYCHQYHHSPYIYTFGGGTKLEIK",OD450 nm,[9],0.767
same,Ratio OD(Variant)/OD(WT),[11],0.997
"H8 (antibody, V domains shown) VH: QVQLQESGPGLVKPSETLSLTCTVSGFSLSIYSVHWIRQPPGKGLEWIGMIWGGGSSDYNSALKSRLTISKDTSKNQVSLKLSSVTAADTAVYYCARNGNFYAMDYWGQGTLVTVSS VL: EIVLTQSPGTLSLSPGERATLSCTASSSVSSSFLHWYQQKPGQAPQLWIYSTSNLASGIPARFSGSGSGTDYTLTISRLEPEDFATYYCHQYHHSPYIYTFGGGTKLEIK",Kd,[7],1.33 nM
same,koff,[7],6.7e-05 s⁻¹
same,kon,[7],50300 M⁻¹ s⁻¹
"H5 K222A (antibody, V domains shown) VH: QVQLQESGPGLVKPSETLSLTCTVSGFSLSIYSVHWIRQPPGKGLEWIGMIWGGGSSDYNSALKSRLTISKDTSKNQVSLKLSSVTAADTAVYYCARNGNFYAMDYWGQGTLVTVSS VL: EIVLTQSPGTLSLSPGERATLSCTASSSVSSSFLHWYQQKPGQAPRLLIYSTSNLASGIPDRFSGSGSGTDFTLTISRLEPEDFAVYYCHQYHHSPYIYTFGGGTKLEIK",Kd,[12],0.068 nM
same,koff,[12],3.42e-06 s⁻¹
same,kon,[12],50200 M⁻¹ s⁻¹
"H7 K222A (antibody, V domains shown) VH: QVQLQESGPGLVKPSETLSLTCTVSGFSLSIYSVHWIRQPPGKGLEWIGMIWGGGSSDYNSALKSRLTISKDTSKNQVSLKLSSVTAADTAVYYCARNGNFYAMDYWGQGTLVTVSS VL: EIVLTQSPGTLSLSPGERATLSCTASSSVSSSFLHWYQQKPGQAPQLWIYSTSNLASGIPDRFSGSGSGTDYTLTISRLEPEDFATYYCHQYHHSPYIYTFGGGTKLEIK",Kd,[12],0.795 nM
same,koff,[12],4.36e-05 s⁻¹
same,kon,[12],54800 M⁻¹ s⁻¹
"H8 K222A (antibody, V domains shown) VH: QVQLQESGPGLVKPSETLSLTCTVSGFSLSIYSVHWIRQPPGKGLEWIGMIWGGGSSDYNSALKSRLTISKDTSKNQVSLKLSSVTAADTAVYYCARNGNFYAMDYWGQGTLVTVSS VL: EIVLTQSPGTLSLSPGERATLSCTASSSVSSSFLHWYQQKPGQAPQLWIYSTSNLASGIPARFSGSGSGTDYTLTISRLEPEDFATYYCHQYHHSPYIYTFGGGTKLEIK",Kd,[12],0.57 nM
same,koff,[12],3.3e-05 s⁻¹
same,kon,[12],58000 M⁻¹ s⁻¹
"H5 (antibody, V domains shown) VH: QVQLQESGPGLVKPSETLSLTCTVSGFSLSIYSVHWIRQPPGKGLEWIGMIWGGGSSDYNSALKSRLTISKDTSKNQVSLKLSSVTAADTAVYYCARNGNFYAMDYWGQGTLVTVSS VL: EIVLTQSPGTLSLSPGERATLSCTASSSVSSSFLHWYQQKPGQAPRLLIYSTSNLASGIPDRFSGSGSGTDFTLTISRLEPEDFAVYYCHQYHHSPYIYTFGGGTKLEIK",Kd,[7],0.825 nM
same,koff,[7],4.5e-05 s⁻¹
same,kon,[7],54500 M⁻¹ s⁻¹
"H14 (antibody, V domains shown) VH: QVQLQESGPGLVKPSETLSLTCTVSGFSLSIYSVHWIRQPPGKGLEWLGMIWGGGSSDYNSALKSRLTISKDTSKNQVSLKLSSVTAADTAMYYCARNGNFYAMDYWGQGTLVTVSS VL: EIVLTQSPGTLSLSPGERATLSCTASSSVSSSFLHWYQQKPGQAPQLWIYSTSNLASGIPDRFSGSGSGTDYTLTISRLEPEDFAVYYCHQYHHSPYIYTFGGGTKLEIK",Kd,[7],0.939 nM
same,koff,[7],4.89e-05 s⁻¹
same,kon,[7],52100 M⁻¹ s⁻¹
"H7 (antibody, V domains shown) VH: QVQLQESGPGLVKPSETLSLTCTVSGFSLSIYSVHWIRQPPGKGLEWIGMIWGGGSSDYNSALKSRLTISKDTSKNQVSLKLSSVTAADTAVYYCARNGNFYAMDYWGQGTLVTVSS VL: EIVLTQSPGTLSLSPGERATLSCTASSSVSSSFLHWYQQKPGQAPQLWIYSTSNLASGIPDRFSGSGSGTDYTLTISRLEPEDFATYYCHQYHHSPYIYTFGGGTKLEIK",Kd,[7],0.258 nM
same,koff,[7],1.07e-05 s⁻¹
same,kon,[7],41400 M⁻¹ s⁻¹
"H14 K222A (antibody, V domains shown) VH: QVQLQESGPGLVKPSETLSLTCTVSGFSLSIYSVHWIRQPPGKGLEWLGMIWGGGSSDYNSALKSRLTISKDTSKNQVSLKLSSVTAADTAMYYCARNGNFYAMDYWGQGTLVTVSS VL: EIVLTQSPGTLSLSPGERATLSCTASSSVSSSFLHWYQQKPGQAPQLWIYSTSNLASGIPDRFSGSGSGTDYTLTISRLEPEDFAVYYCHQYHHSPYIYTFGGGTKLEIK",Kd,[12],1.3 nM
same,koff,[12],6.53e-05 s⁻¹
same,kon,[12],50100 M⁻¹ s⁻¹
